# Assay results: US20230181723A1 (UNIVERSITY OF MARYLAND COLLEGE PARK, published 2023)
# T1: human TMEM129 (E3 ligase), endogenous in HeLa cells (human, UniProt A0AVI4 1-362)
# T1 construct: whole, on cells; Endogenous protein in HeLa lysates; also called E3 ligase TMEM129
# T1 sequence (looked up): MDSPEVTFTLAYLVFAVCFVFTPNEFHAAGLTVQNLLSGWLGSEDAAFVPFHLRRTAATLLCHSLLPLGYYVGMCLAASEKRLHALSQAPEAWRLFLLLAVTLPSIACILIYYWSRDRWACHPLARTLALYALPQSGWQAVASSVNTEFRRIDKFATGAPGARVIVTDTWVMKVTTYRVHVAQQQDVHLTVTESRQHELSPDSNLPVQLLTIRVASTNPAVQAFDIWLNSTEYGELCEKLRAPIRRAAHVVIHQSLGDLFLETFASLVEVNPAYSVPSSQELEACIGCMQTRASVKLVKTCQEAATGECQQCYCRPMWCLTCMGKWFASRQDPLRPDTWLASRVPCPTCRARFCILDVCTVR
# How the values were obtained:
# [1] = target: T2, FLAG-tagged human FcRn heavy chain (pcDNA-FLAGFcRn), expressed in HeLa^FcRn cells (human, UniProt P55899 24-365); assay: probing for interactions in HeLa^FcRn cells transfected with HA-tagged HCMV cDNAs
# T2 construct: whole, on cells; it pairs with endogenous β2m in the cells; also called FcRn HC; WT FcRn
# [2] = target: T1, human TMEM129 (E3 ligase), endogenous …; assay: immunoprecipitation with anti-TMEM129 from HeLa^FcRn cells transfected with Derlin-1
# [3] = target: T3, HA-tagged HCMV US11 (pEF6-US11, gene synthesised from HCMV AD169 DNA), expressed in HeLa cells (human cytomegalovirus (AD169 DNA as …, UniProt P09727 18-215)); assay: immunoprecipitation of US11 from HeLa^US11 cells, blot for Derlin-1
# T3 construct: Full-length membrane glycoprotein expressed in transfected HeLa cells and tested in CHAPS lysates; also called HCMV glycoprotein US11; wild-type US11
# [4] = target: T3, HA-tagged HCMV US11 (pEF6-US11, gene …); assay: reciprocal co-immunoprecipitation (anti-HA, anti-FLAG) from HeLa^HFE+US11 lysates
# [5] = target: T2, FLAG-tagged human FcRn heavy chain …; assay: reciprocal co-immunoprecipitation (anti-HA for US2, anti-FLAG for FcRn) from HeLa^FcRn+US2 lysates
# T2 sequence (P55899 other isoform, or with tags, fused parts or gaps): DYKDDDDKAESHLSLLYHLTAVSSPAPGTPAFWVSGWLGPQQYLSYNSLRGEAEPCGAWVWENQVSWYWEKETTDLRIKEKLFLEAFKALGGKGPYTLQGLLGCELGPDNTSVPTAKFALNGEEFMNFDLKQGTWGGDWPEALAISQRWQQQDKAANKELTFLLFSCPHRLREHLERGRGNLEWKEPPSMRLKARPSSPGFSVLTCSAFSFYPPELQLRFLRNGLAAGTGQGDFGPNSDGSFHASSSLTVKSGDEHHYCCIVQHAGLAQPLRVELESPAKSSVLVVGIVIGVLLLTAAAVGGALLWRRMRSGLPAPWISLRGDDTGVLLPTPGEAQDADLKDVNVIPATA
binder,measurement,setting,value
"HA-tagged HCMV US6, expressed in HeLa^FcRn cells (other, whole, on cells) ERSSRDPKTLLSLSPRQQACVPRTKSHRPVCYNDTGDCTDADDSWKQLGEDFAHQCLQAAKKRPKTHKSRPNDRNLEGRLTCQRVRRLLPCDLDIHPSHRLLTLMNNCVCDGAVWNAFRLIERHGFFAVTLYLCCGITLLVVILALLCSITYESTGRGIRRCGS",binding result,[1],binds
"Myc-tagged human Derlin-1 (pSectag2-Derlin-1) (other, whole, on cells; Transiently expressed in HeLa transfectants; tested in lysates; also called myc-tagged Derlin-1; Derlin-1 (WT)) SDIGDWFRSIPAITRYWFAATVAVPLVGKLGLISPAYLFLWPEAFLYRFQIWRPITATFYFPVGPGTGFLYLVNLYFLYQYSTRLETGAFDGRPADYLFMLLFNWICIVITGLAMDMQLLMIPLIMSVLYVWAQLNRDMIVSFWFGTRFKACYLPWVILGFNYIIGGSVINELIGNLVGHLYFFLMFRYPMDLGGRNFLSTPQFLYRWLPSRRGGVSGFGVPPASMRRAADQNGGGGRHNWGQGFRLGDQEQKLISEEDL",binding result,[2],binds
"Derlin-1 in HeLa^US11 or HeLa^US11Q192L stable cells (FIG. 16A; no transfection of Derlin-1 stated) (other, whole, on cells) SDIGDWFRSIPAITRYWFAATVAVPLVGKLGLISPAYLFLWPEAFLYRFQIWRPITATFYFPVGPGTGFLYLVNLYFLYQYSTRLETGAFDGRPADYLFMLLFNWICIVITGLAMDMQLLMIPLIMSVLYVWAQLNRDMIVSFWFGTRFKACYLPWVILGFNYIIGGSVINELIGNLVGHLYFFLMFRYPMDLGGRNFLSTPQFLYRWLPSRRGGVSGFGVPPASMRRAADQNGGGGRHNWGQGFRLGDQ",binding result,[3],binds
"FLAG-tagged human HFE (hemochromatosis protein), expressed in HeLa^HFE cells (other, whole, on cells; Specificity control with an MHC class I-like structure; also called HEF; HeLa^HFE+US11) DYKDDDDKRLLRSHSLHYLFMGASEQDLGLSLFEALGYVDDQLFVFYDHESRRVEPRTPWVSSRISSQMWLQLSQSLKGWDHMFTVDFWTIMENHNHSKESHTLQVILGCEMQEDNSTEGYWKYGYDGQDHLEFCPDTLDWRAAEPRAWPTKLEWERHKIRARQNRAYLERDCPAQLQQLLELGRGVLDQQVPPLVKVTHHVTSSVTTLRCRALNYYPQNITMKWLKDKQPMDAKEFEPKDVLPNGDGTYQGWITLAVPPGEEQRYTCQVEHPGLDQPLIVIWEPSPSGTLVIGVISGIAVFVVILFIGILFIILRKRQGSRGAMGHYVLAERE",binding result,[4],no binding
"HA-tagged HCMV UL16, expressed in HeLa^FcRn cells (other, whole, on cells) VDLGSKSSNSTCRLNVTELASIHPGETWTLHGMCISICYYENVTEDEIIGVAFTWQHNESVVDLWLYQNDTVIRNFSDITTNILQDGLKMRTVPVTKLYTSRMVTNLTVGRYDCLRCENGTTKIIERLYVRLGSLYPRPPGSGLAKHPSVSADEELSATLARDIVLVSAITLFFFLLALRIPQRLCQRLRIRLPHRYQRLRTED",binding result,[1],binds
"HA-tagged HCMV US2 (pEF6-US2), expressed in HeLa cells (other, whole, on cells; also called HeLa^US2; HeLa^FcRn+US2) MNNLWKAWVGLWTSMGPLIRLPDGITKAGEDALRPWKSTAKHPWFQIEDNRCYIDNGKLFARGSIVGNMSRFVFDPKADYGGVGENLYVHADDVEFVPGESLKWNVRNLDVMPIFETLALRLVLQGDVIWLRCVPELRVDYTSSAYMWNMQYGMVRKSYTHVAWTIVFYSINITLLVLFIVYVTVDCNLSMMWMRFFVCYPYDVPDYA",binding result,[5],no binding
